In paper PMC3568127:

Biological target: NRP1 (neuropilin 1) expressed from an adenovirus on DU145 cells (UniProt O14786)
Assay: cell based binding displacement assay (biotinylated ligand, streptavidin-HRP, A450); DU145 cells infected with Ad.NRP1 in 96-well plates; various concentrations of competitor then 1 nM bt-VEGF-A165; binding medium with or without 0.1% BSA; 2 h at room temperature; apparent affinity judged by IC50

NRP1 (neuropilin 1) expressed from an adenovirus on DU145 cells, sequence (O14786 22-923): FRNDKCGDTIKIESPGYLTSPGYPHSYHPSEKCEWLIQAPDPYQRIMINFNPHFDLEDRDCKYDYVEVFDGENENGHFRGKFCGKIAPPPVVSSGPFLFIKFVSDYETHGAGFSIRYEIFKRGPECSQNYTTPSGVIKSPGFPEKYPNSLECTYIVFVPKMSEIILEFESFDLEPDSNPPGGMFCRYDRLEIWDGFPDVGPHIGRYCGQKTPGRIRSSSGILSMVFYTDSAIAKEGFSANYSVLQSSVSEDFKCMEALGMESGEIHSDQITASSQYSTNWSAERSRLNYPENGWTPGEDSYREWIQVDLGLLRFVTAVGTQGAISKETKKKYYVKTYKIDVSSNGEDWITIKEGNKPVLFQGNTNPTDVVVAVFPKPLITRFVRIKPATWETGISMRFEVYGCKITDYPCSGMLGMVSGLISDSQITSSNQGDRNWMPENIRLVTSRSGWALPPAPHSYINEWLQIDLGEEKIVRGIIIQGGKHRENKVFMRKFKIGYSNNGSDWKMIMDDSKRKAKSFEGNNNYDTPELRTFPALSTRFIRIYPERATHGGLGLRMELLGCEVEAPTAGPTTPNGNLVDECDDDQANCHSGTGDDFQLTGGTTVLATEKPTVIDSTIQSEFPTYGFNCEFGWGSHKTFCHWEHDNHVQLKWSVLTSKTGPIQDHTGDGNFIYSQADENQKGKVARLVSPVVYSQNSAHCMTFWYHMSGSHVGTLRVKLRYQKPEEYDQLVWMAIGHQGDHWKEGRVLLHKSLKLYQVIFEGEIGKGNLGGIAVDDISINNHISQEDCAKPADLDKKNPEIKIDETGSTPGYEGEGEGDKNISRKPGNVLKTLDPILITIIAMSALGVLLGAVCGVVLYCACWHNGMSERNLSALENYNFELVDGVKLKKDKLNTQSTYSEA

## VEGF-A165-HBD (the forms of the cell based assay: with and without the His6-tag)
  IC50: 100 to 200 nM
